Patent publication US20110190477A1 (G2 INFLAMMATION, published 2011)
No end group written: not given here. *: point of attachment. Biotin = O=C1N[C@H]2[C@H](CS[C@H]2CCCCC(=O)*)N1

B1: humanized anti-C5aR antibody hAb-J (antibody, human IgG4 S228P, kappa)
light: DVVMTQSPLSLPVTLGEPASISCRSSQSLVHSNGNTYLHWYLQKPGQSPQLLIYKVSNRFSGVPDRFSGSGSGTDFTLKISRVEAEDVGVYFCSQSTLVPLTFGQGTKLEIKTVAAPSVFIFPPSDEQLKSGTASVVCLLNNFYPREAKVQWKVDNALQSGNSQESVTEQDSKDSTYSLSSTLTLSKADYEKHKVYACEVTHQGLSSPVTKSFNRGEC
heavy: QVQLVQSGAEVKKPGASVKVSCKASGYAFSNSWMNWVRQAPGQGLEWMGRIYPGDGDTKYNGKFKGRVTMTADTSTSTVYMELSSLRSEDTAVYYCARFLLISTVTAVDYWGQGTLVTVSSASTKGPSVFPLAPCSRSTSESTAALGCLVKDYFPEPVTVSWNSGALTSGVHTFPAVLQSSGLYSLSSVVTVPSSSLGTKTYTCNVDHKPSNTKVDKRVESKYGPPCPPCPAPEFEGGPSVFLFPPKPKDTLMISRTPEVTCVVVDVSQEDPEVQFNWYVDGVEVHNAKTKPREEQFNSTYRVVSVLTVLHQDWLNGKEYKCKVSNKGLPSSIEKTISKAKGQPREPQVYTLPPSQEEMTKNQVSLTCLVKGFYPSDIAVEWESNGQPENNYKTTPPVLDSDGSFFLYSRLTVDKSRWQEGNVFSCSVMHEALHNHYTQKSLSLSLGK
notes: also called antibody J
B2: humanized anti-C5aR antibody hAb-Q (antibody, human IgG4 S228P, kappa)
light: DVVMTQSPLSLPVTLGEPASISCRSSQSLVHSNGNTYLHWYLQKPGQSPQLLIYKVSNRFSGVPDRFSGSGSGTDFTLKISRVEAEDVGVYFCSQSTLVPLTFGQGTKLEIKRTVAAPSVFIFPPSDEQLKSGTASVVCLLNNFYPREAKVQWKVDNALQSGNSQESVTEQDSKDSTYSLSSTLTLSKADYEKHKVYACEVTHQGLSSPVTKSFNRGEC
heavy: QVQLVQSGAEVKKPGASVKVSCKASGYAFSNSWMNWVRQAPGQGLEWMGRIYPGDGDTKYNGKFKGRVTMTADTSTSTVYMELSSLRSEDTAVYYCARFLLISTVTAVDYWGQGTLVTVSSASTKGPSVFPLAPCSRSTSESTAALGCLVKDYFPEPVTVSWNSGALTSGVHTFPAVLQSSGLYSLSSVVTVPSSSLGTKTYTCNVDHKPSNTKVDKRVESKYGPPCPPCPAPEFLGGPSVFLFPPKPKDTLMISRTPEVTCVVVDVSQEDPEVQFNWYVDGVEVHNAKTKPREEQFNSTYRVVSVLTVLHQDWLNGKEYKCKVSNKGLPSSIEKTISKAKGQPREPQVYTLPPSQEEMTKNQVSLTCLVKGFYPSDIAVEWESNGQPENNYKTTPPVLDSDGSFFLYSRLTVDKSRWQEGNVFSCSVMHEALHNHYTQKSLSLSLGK
notes: IgG4 with the Ser228Pro mutation; also called antibody Q; anti-C5aR ab
B3: mouse anti-C5aR monoclonal antibody 7F3 (antibody, V domains shown)
VH: QVQLQQSGPELVKPGASVKISCKASGYAFSNSWMNWVKQRPGKGLEWIGRIYPGDGDTKYNGKFKGKATLTADKSSSTAYMQLSSLTSEDSAVYFCARFLLISTVTAVDYWGQGTTLTVSS
VL: DVVMTQSPLSLPVSLGNQASISCRSSQSLVHSNGNTYLHWYLQKPGQSPKLLIYKVSNRFSGVPDRFSGSGSGTDFSLKISRVEAEDLGVYFCSQSTLVPLTFGAGTKLELK
notes: Mouse monoclonal from hybridoma ECACC 00110609; also called m7F3; mouse 7F3

Tests used:
human C5a receptor [1] = biological target: T1, human C5a receptor (human, UniProt P21730 1-350); test: 125I-C5a displacement, L1.2/hC5aR transfectants
T1 construct: On human neutrophils, L1.2/hC5aR transfectants or neutrophils of hC5aR knock-in mice; also called hC5aR; C5aR1
T1 chain: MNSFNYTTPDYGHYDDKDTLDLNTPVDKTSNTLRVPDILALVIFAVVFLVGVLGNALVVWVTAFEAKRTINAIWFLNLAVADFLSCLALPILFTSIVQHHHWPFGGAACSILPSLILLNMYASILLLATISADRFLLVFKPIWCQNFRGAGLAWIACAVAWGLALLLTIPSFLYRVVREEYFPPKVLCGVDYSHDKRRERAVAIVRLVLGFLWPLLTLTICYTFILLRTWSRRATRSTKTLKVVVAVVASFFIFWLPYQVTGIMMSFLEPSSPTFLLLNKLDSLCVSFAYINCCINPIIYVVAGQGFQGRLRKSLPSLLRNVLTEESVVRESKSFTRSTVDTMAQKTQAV
Protocol: (§1) The ability of humanized Abs to inhibit ¹²⁵I-labelled C5a binding to L1.2 cells transfected with hC5aR gene or human neutrophils was tested as described below. Recombinant human C5a was obtained from Sigma Chemical Co. (St. Louis, Mo.). ¹²⁵I-Bolton-Hunter-labelled complement C5a was purchased from NEN-Dupont (Boston, Mass.), with a specific activity of 2200 Ci/mM. Briefly, L1.2/hC5aR stable transfectants were grown for several days prior to an experiment then treated overnight with 5 mM butyric acid to stimulate hC5aR expression prior to the binding assay. Human neutrophils were purified from venous blood collected from healthy volunteers. Neutrophils were separated from other leukocytes by percoll density centrifugation followed by a red blood cell lysis step. Both cell types were washed once in PBS and resuspended in binding buffer (50 mM Hepes, pH 7.5, 1 mM CaCl₂, 5 mM MgCl₂, 0.5% BSA) at a concentration of 1×10⁷/ml. Aliquots of 40 μl (4×10⁵ cells) were dispensed into 96 well microtitre plates, followed by the addition of cold competitor (antibody or human C5a). Cells and cold competitor were incubated for 15 min at room temperature before-radiolabelled C5a was added to a final concentration of 0.4 nM. The final reaction volume was 120 μl. After 60 min incubation at room temperature, the cells were washed three times with 150 μl of binding buffer containing 0.15 M NaCl. Cell pellets were then counted on a TopCount Scintillation Counter (Packard). Samples were assayed in triplicate at each of 6-8 concentrations. Each antibody was tested in at least 3 separate assays. The number of counts in each sample was expressed as a percentage of the maximum ¹²⁵I-C5a binding observed in wells with no added cold competitor after subtraction of background.
(§2) Results of this analysis (the displacement curves) for each of the humanized antibodies compared to the mouse antibody 7F3 in human neutrophils and L1.2/hC5aR transfectants are given in FIGS. 11 and 12 respectively. […] These values were obtained using Graphpad Prism software fitting the data to the non-linear equation for one site competition.

human C5a receptor [2] = biological target: T1, human C5a receptor; test: cell-based or functional assay
[3] = biological target: T2, peptide 14 (12 mer from the 2nd extracellular loop of human C5aR) (human); test: peptide ELISA, biotin peptide on streptavidin plate
T2 construct: worked out from 22 12 mers offset by one over 173-205; also called peptide no; 14
T2 peptide: Biotin-SGSGVLCGVDYSHDKR
Excerpt: (§3) A set of 22 overlapping peptides (12 mers), each offset by 1 residue from the next, spanning the second extracellular loop (3rd extracellular domain) of human C5aR was synthesised (Mimotopes, Melbourne). Each peptide was made with a biotin group and 4-amino acid linker (SGSG) at its N-terminus. One peptide synthesised, no. 23, was a 33 mer, representing the full length of the 2nd extracellular loop of hC5aR (residues 173-205 from SEQ ID NO:37), also had biotin-SGSG at the N-terminus.
(§4) The experiment was conducted by binding the peptides to a 384-well streptavidin-coated plate then incubating the antibodies with the peptides and detecting bound antibody with an anti-mouse IgG conjugated to horse radish peroxidase (HRP) as follows. Each peptide was dissolved in 200 μl of 60% DMSO to a concentration of 10 mg/ml. Peptides were further diluted 1:1000 to a working strength of 10 μg/ml with PBS/Tween 20/azide solution (0.1% w/v sodium azide in PBS/0.05% Tween 20).
(§5) A 384 well streptavidin-coated plate (Nunc) was blocked with 20 μl of blocking buffer (1% w/v BSA in PBS) per well. The plate was washed 4 times with PBS/Tween20 buffer (0.1% v/v Tween 20 in PBS). 20 μl of diluted peptide solution was transferred into a well and the plate incubated for 1 hour at room temperature. After washing the plate 4 times (as above) 20 μl antibody (0.5, 1, 1.25, 2.5 or 5 μg/ml) was added to the well and the plate was incubated for 1 hour at 20° C. The plate was washed 4 times as above then 20 μlHRP-conjugated anti-mouse IgG (1:5000 dilution in PBS/Tween 20) was added to each well. After a 1 hour incubation at room temperature the plate was washed 3 times (as above) then twice with PBS to remove traces of Tween. The presence of peroxidase was detected by adding 20 μl of freshly prepared TMB Substrate reagent (BD Opt EIA) to each well and incubating at room temperature for 20 min. Finally the plate was read at 650 nm/450 nm.

[4] = biological target: T3, peptide 20 (12 mer from the 2nd extracellular loop of human C5aR) (human); test: as above
T3 construct: worked out from 22 12 mers offset by one over 173-205; also called peptide no; 20
T3 peptide: Biotin-SGSGYSHDKRRERAVA
Excerpt: as §3, §4, §5

[5] = biological target: T4, peptide 21 (12 mer from the 2nd extracellular loop of human C5aR) (human); test: as above
T4 construct: worked out from 22 12 mers offset by one over 173-205; also called peptide no; 21
T4 peptide: Biotin-SGSGSHDKRRERAVAI
Excerpt: as §3, §4, §5

[6] = biological target: T5, peptide 15 (12 mer from the 2nd extracellular loop of human C5aR) (human); test: as above
T5 construct: worked out from 22 12 mers offset by one over 173-205; also called peptide no; 15
T5 peptide: Biotin-SGSGLCGVDYSHDKRR
Excerpt: as §3, §4, §5

[7] = biological target: T6, peptide 17 (12 mer from the 2nd extracellular loop of human C5aR) (human); test: as above
T6 construct: worked out from 22 12 mers offset by one over 173-205; also called peptide no; 17
T6 peptide: Biotin-SGSGGVDYSHDKRRER
Excerpt: as §3, §4, §5

[8] = biological target: T7, peptide 16 (12 mer from the 2nd extracellular loop of human C5aR) (human); test: as above
T7 construct: worked out from 22 12 mers offset by one over 173-205; also called peptide no; 16
T7 peptide: Biotin-SGSGCGVDYSHDKRRE
Excerpt: as §3, §4, §5

human C5a receptor [9] = biological target: T1, human C5a receptor; test: 125I-C5a displacement, human neutrophils
Protocol: as §1, §2

Binder | EC50 (human C5a receptor [1]) | IC50, C5a-induced migration of hC5aR/L1.2 cells (human C5a receptor [2]) | antibody concentration that completely inhibited hC5aR/L1.2 transfectant migration (human C5a receptor [2]) | blocking of human neutrophil migration towards C5a at 5 µg/ml antibody (human C5a receptor [2]) | binding result [3] | binding result [4] | binding result [5] | binding result [6] | binding result [7] | binding result [8] | EC50 (human C5a receptor [9]) | EC50 for inhibition of C5a-induced human neutrophil migration (human C5a receptor [2]) | IC50, prevention of C5a-induced CD11b up-regulation on neutrophils in whole human blood (100 nM C5a) (human C5a receptor [2]) | IC50, prevention of C5a-induced loss of CD62L on neutrophils in whole human blood (100 nM C5a) (human C5a receptor [2]) | antibody concentration that completely blocked migration of human neutrophils induced by 10 nM C5a (human C5a receptor [2])
B1 | 930 pM | 0.6 µg/mL | 5 µg/mL | 82% | no binding | no binding | no binding | no binding | no binding | no binding | 4110 pM |  |  |  | 
B2 | 860 pM | 0.7 µg/mL | 5 µg/mL |  | no binding | no binding | no binding | no binding | no binding | no binding | 3500 pM | 0.03 µg/mL | ~10.7 µg/mL | ~5.4 µg/mL | 
B3 | 510 pM | 0.5 µg/mL | 5 µg/mL | 97% | no binding | no binding | no binding | no binding | no binding | no binding | 540 pM |  |  |  | 10 µg/mL
